Data taken from the DeepSol protein solubility set.

assay: soluble on expression in E. coli; label from the status in PepcDB or PDB records

Row | Sequence | soluble on expression in E. coli
1 | VNVLKKDITASPVLSETAPTSAPSEAAAANEIKQPIPSQKAEMSELKKLTDIISPELIEPNLVGETSDDIIDELIQKLSRRGALLSESGFKQAILNREQQGTTAIGMNIAIPHGKSEAVREPSVAFGIKRSGVDWE | not soluble
2 | MGVPIGDLVPRKEIDLENLYGKKIAIDALNAIYQFLSTIRQEDGTPLMDSKGRITSHLSGLFYRTINLMEAGIKPAYVFDGKPPEFKRKELEKRREAREEAELKWKEALAKGNLEEARKYAQRATKVNEMLIEDAKKLLQLMGIPIIQAPSEGEAQAAYMASKGDVYASASQDYDSLLFGAPRLIRNLTITGKRKMPGKDVYVEIKPELVVLDEVLKELKITREKLIELAILVGTDYNPGGVKGIGPKKALEIVRYSRDPLAKFQRQSDVDLYAIKEFFLNPPVTNEYSLSWKEPDEEGILKFLCDEHNFSEERVKNGIERLKKAIKAGRQSTLESWFVKKKP | soluble
3 | MGSDKIHHHHHHMVSYKILSVANKLKNIRDKYGLSQEDLAGNEITRNLISQIEHNKANLTRSAAEIMLKNLKKICDKKNVQVDEDINYLMEDEKSQAIKVLDKYIDDLRDLTIYKDNVFINKLREVEDFLVTWDFRDKKITIFELAGDYFSSTNDFYNASLYYEKAKALIDINIYSDNIVHILRKLSMTYYYMLRYQDDINCCEFALKQFKNMDEEYRCIFLFNSSLCYGQLKKYDLALKRLNEVESIIKNIDQNKYYEVLIQKAICYQWMKEYQKSLDIYNKLLESIDKSDYEKYLFILVNSSDIYVENSNFEKAESNLRIILENINNLNESSTLLPSTYLEMSRILKKLGYTKDAELYCLKSLNYAKRNTHYYLVNDIYGELLDIYKTLNVPEKVQTIKDEFFSNSSRDKNLNSKLMFKLLDFYFATNDIHSIKEIYDFSKNFIQERMINLCY | not soluble
4 | MILFDFKDLSAATSWYGVNDTVMGGLSRSKLTISPLGYGIFSGHVSLANGGGFASVRCEFEHVNVAEFTGIYLDLDSDRSKQYKVNLKDADTPQSTVYQAIMPAPTHQTFGLSGASAIHWQRIEIPFTNFHPQCRGKPIAGAAIDLRRLTSIGLVIGAQQSGDFALKIKSIGCYLEHHHHHH | soluble
5 | MKKTLLAIVAVSALSACRQAEEGPPPLPRQISDRSVGHYCSMNLTEHNGPKAQIFLNGKPDQPVWFSTIKQMFGYTKLPEEPKGIRVIYVTDMGNVTDWTNPNADTEWMDAKKAFYVIDSGFIGGMGAEDALPFGNKEQAEKFAKDKGGKVVGFDDMPDTYIFK | not soluble
6 | MGSDKIHHHHHHMKAKAAFFDIDGTLYREGLISEVFKKLIKYEIIDEEKWYKEVRPEFEKWDNRKGDYDDYLLKMTEIYVDALNGLSKSQVEFIASQVVNQKGERVYTYTRDRIKWHKERGHKIITISGSPIELVRNMAEKYGFDDYRGAEYLLDENDVYTGEVIPMWDSKSKERAVHELEAKYNIDLGESYAYGDTSGDLTMLKMVGNPVCINPTKELVKEILSAAAVKNKIRIIVERKDMIYKISSRCLECDCEFVL | not soluble
7 | MGSDKIHHHHHHMLDAQHIQALKEIVGEENCFDDKAHKLAYCYDATRNRYEPDAVIFPRCEEDVSRLLAYCNTHKITIVPRGAGSGFTGGSLPVNGGIVLAFEKHMNKILEIDMENMVARVQPGVVNKRLQEAVEAMGLFYPPDPASEEYSTLGGNVSENAGGMRAAKYGITKDYVMALRAVLPNGDIIRAGKKTIKDVAGYNIAGILIASEGTLAVITEITLKLLSKPKLRQSAMGVFPTIESAMNAVYKTMAAGVTPVAMEFLDNLTIRAVESKFSKGLPVEAGAILITDMDGNLPEEIELQMAKIEEKFKENGALSFKKAASEEEAKDLWFARRNASQSVTIYGKKKLNEDITVPRSKLPELLQRINAISERYGVKTPCFGHTGDGNVHVNVMVEDGSDPKQLEIGHQAIEEIFKAAVELEGTLSGEHGIGISKAPFMHLAFTPEEMNLFRAIKQAFDPNNILNNGKMAL | not soluble
8 | TDVATVVSQAKAQMKEAYYTYSHTVTETGQFPDIKDVYAAYNKAKQAYANAVAVVNKAGGAKKDAYLADLQAIYETYVFKANPKSGEARVATYIDAYNYATKLDKMRQELKAAVDAKDLKKAEELYHKISYELKTRTVILDRVYGQSTRELLRSTFKADAQALRDRLIYDITVAMKAREAQDAVKAGNLDKAKAALDQVNQYVSKVTDAFKAELQKAAQDAKAAYEAALTPKVESVSAIDSTSFKVTFTKPVDKATAIPKNFSITLKGTETKLYPKSVEVSESGLTATVTLYDTLVDGKTYTVVTSGLKDTAGKEFETSTNEFTYNKPVPASITFNFNKLPEDSAVDLTKYVTVKDAAGNVIKSGFELEFTSSEKLTQGKFINTTGKKSVIVNATVKGTNVTTGNVILAVED | soluble
9 | MGSDKIHHHHHHMDKIRVIELGSNISAPLVGTILADLGAEVIKVEPPPYGDDRRRVKPEINGISVYFASTNRGKKSVVINLKSDEGYEIFQRLVKTADVIVTNYRPSALKRLKVDYESVKRINPKIIYCSITGFGNLTEEADRPAYDPIILALSGLMDMTGEENPVKFATSISDITTGLLATVMILWALNKGGPTFIDVPMIYTQFYLTLEDAYMYLNTGKVPKRMGSAHRYLVPYQAFKVVDGYIYVAVFNDEQYLKLCKALNREDLCKFDTLQKRVENRDYLIKELGKIFEKNTRDYWVDLLSKADVPVAPVLSLEQAFKKYGNRLVYEIEGVKYIDFPINITSNKSKAPRLGENTKEVLLELGYSEGEINRLAEKGIIMLI | not soluble
10 | MKIGYLGPKATFTEAAAALLFPSQPREPYDTIPDCIDAAAAGEIEAAVVPLENALEGSVNLTLDYLIHEQPLPIIGEIVVPIEQHLMVHPYFTPHWREVKEVYSHSHAIAQCRKFLHTVLKGAKQVPMTSTSAAAKFVSEHPHLPAAAIANRLAAEKYGLVIVQENVHDYDYNHTRFIVVSRRKEPLSPASPLYAGDKTTVVVMLPQDRPGALHQVLSAFAWRRLNLTKIESRPAKTGLGNYFFIIDIDAPMDDVLIPGAIAEIEALGCTVQLLGSYPYYFA | not soluble
11 | MATEPPKIVWNEGKRRFETEDHEAFIEYKMRNNGKVMDLVHTYVPSFKRGLGLASHLCVAAFEHASSHSISIIPSCSYVSDTFLPRNPSWKPLIHSEVFKSSI | soluble
12 | MKDSAPELNVSSSETEEDKEEAKPDGEKDPDFNQSNGGTKRQKISHQNYIAYQKQVIRRSMRHRKVRGEKALLVSANQTLKELKIQIMHAFSVAPFDQNLSIDGKILSDDCATLGTLGVIPESVILLKADEPIADYAAMDDVMQGKDEFVLGIC | not soluble
13 | SAHSAAAVPLGALEQGCPIRVEHDRRRRQFTVRLNGCHDRAVLLYEYVGKRIVDLQHTEVPDAYSGRGIAKHLAKAALDFVVEEDLKAHLTCWYIQKYVKENPLPQYLERLQP | soluble
14 | MDEVNVIARITGVSRVRTFERDGREGRFISLDIMDATGSTTYTLWNNDVNLVEELGLKEGDAVKILWAQPRRRDDKVTLTHTSLTRVVPGLEHHHHHH | not soluble
15 | MASQVSQMPSSSPLSSNKDEMRPKADFQPSIWGDLFLNCPDKNIDAETEKRHQQLKEEVRKMIVAPMANSTQKLAFIDSVQRLGVSYHFTKEIEDELENIYHNNNDAENDLYTTSIRFRLLREHGYNVSCDVFNKFKDEQGNFKSSVTSDVRGLLELYQASYLRVHGEDILDEAISFTTHHLSLAVASLDHPLSEEVSHALKQSIRRGLPRVEARHYLSVYQDIESHNKALLEFAKIDFNMLQFLHRKELSEICRWWKDLDFQRKLPYARDRVVEGYFWISGVYFEPQYSLGRKMLTKVIAMASIVDDTYDSYATYEELIPYTNAIERWDIKCIDEIPEYMKPSYKALLDVYEEMVQLVAEHGRQYRVEYAKNAMIRLAQSYLVEAKWTLQNYKPSFEEFKANALPTCGYAMLAITSFVGMGDIVTPETFKWAASDPKIIQASTIICRFMDDVAEHKFKHRREDDCSAIECYMEEYGVTAQEAYDVFNKHVESAWKDLNQEFLKPTEMPTEVLNRSLNLARVMDVLYREGDGYTYVGKAAKGGITSLLIEPIAL | soluble
16 | MAHHHHHHMCPPKNENERGTEGQPAKNTESADTLKRKLSELYAEEGCQYGENGQPEDTSHLVSSGSAGKKRETATEKRNPEEVREKENAHEKKEDNEVDQNGQTSTSKTNTKKHRSSTDEPPNRRKKKKRKKKFNDNGEVTKPSKQMIRINYLLQASFLMNELNPNISREYIKTMRKLSNKFLIKHDKKFKKLFCKKCNSVLIPSATCKVSVNPLNLRKKKKNKNEEVSSNLNGKLRDEFLVSYRCNYCQHDTKFVYENGLTAPRANGTEAV | soluble
